The values below come from article PMC10967930.

As usually defined, the Kd is the equilibrium constant for the complex coming apart. Low values mean higher affinity, high ones lower affinity.

Some results are limits rather than exact numbers.

Assay [1] deals with human PF4 isolated from human platelets (human). The experiment in a line: other fluorescence titration.
The target in assay [2] is full-length SARS-CoV-2 spike protein of original COVID-19 (SARS-CoV-2) (UniProt P0DTC2). The experiment in a line: ELISA.

For “full-length SARS-CoV-2 spike protein of original COVID-19 (from UniProt P0DTC2) (natural protein)”, the Kd in assay [1] was 586 nM. In the case of “human PF4 isolated from human platelets (natural protein)”, the OD at 450 nm in assay [2] was over 0.5.
